test: soluble fraction after stress (log2 fold change); higher = more stays soluble; pooled small domains, quantitative proteomics; settings: stress: 50 degC
How it was run: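 The stress applied to every library was 50°C. These custom libraries of small protein domains were pooled and measured at high throughput with quantitative proteomics as the read-out. Aggregation propensity is expressed as the base-two logarithm of the fold change in how much of each protein remains soluble. The higher the value, the more of that protein stays in solution.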

Sequence	soluble fraction (log2)
HMVSRAFEEETVKRAESGNQEAALFALELAIREIEHSYEKSKIIDYFVSKVRLFLDNGVSLERALGIH	0.0637
HMGGREEAGTDIARLLGYINDIHGEELIAKLEYYQKMLGSENFAVLMSRLPDGQKKELREQNLYSEYV	-0.145
HMVYNGYYAKSFNGYVVILNGDEKTVYEYTQIPIHLLPEDIRSSVMSGYYLENETDLYNFLENYS	-0.822
HMELPPLEPIDRILVVQQPINIREQPGVLAKKIGRVSSGETLTILAKVSGQDWYFVETDNGGRGYVFKRV	-0.555
HMQLPFTPREHEITQLLSRGLSNRQIAEALSLSVRTVEGHIYQASTKLGISSRSELAVLVGQFA	-1.89
HMTYFIADLIGLQVYTDSGELLGKVDDIYNSGSADIYVVKDELGKQILLPGIKDVIKQIDVDNEKIIVHLI	-0.885
HMGMAQELMESRLTAVFTSGKDQLAVLQRKDGSTLKLGADSKPWRIESFDGRKAVFVSADQQRVERLL	-0.209
HMSAGKKSFTNSEFRRFLDALGEGLIVKHKKLGEGVVVEIRGDKAVIQFGDEQRLYELKTLYEYDLLR	-0.12
HMIVVMQPGATKEQVQAVIDRVAEFGFQTKLAPGAERMVIGVVGSPLPDTLKEALERLPGVEEVIRVSKR	-0.0691
HMSMSVLFSELDQKDAGVIVEKLKERKIPYELQSGGSAIMVPANVLHETRLQLAAEGLPQSS	0.0439
HMTRAEVQALLEKQAKDFEVEVVHRGWKKTVQTPEFAGWYSQQPAEIKALAESDDPAVAIRMLDLFSGTK	-0.0852
HMGKRGKEMQTAVLAILRASDRPYSAYELLESLKDIYPKIAPPTVYRALAALTQRGQIRRLESLNAFI	-0.325
HMLSNYIGMTLGEAKRNLGQGVNITVNGPNNDNAEVTGQDPTSGSSFDKSKDTITLTT	0.0581
HMDSLQDFAYEEIKKRIQNGEYAPGTKLNTQEISDSLGISRSPVLAAINRLIALGLVEATPRKGTTVA	0.0527
HMERYLLRDNIPNALHGERLDRVIAIMTGLSRSAVSALIKSNQVLRNGQIAQSISEKVVEGDELEVHLEP	-0.0223
HMIKIEDILNVESVELSDSEYKKFLNGILINVKNLENGWAKVYSGNEFKGFGIVDKNLLKRKIVID	-0.426
HMITDSSEIEAMVDALVKENPGQAEQYKDGNMKVAGWFIGQIMKVSKGKANPQLVGDLLKKKLG	0.353
HMEIPTEEILKQKLYYSISEVASWFKVNTSLLRYWENEFDILQPRKTRKGDRLFRVEDIKNLQLIYLL	0.107
HMAPRSSAVYFYLSQVALKKNQPRKAEAMARRGLTVSQDANRRRALWQLILRSGQAQNNTRVIREAQQAL	0.19
HMQSSDQTDNIYENAVSIVLETGKASASHLQRVLGIDYNLAAHLIDKMEDGGLLSPPNYLGHRDVYGYT	0.0916
HMNGVSNETLIQKSALYEELNQPDLALKMINTALKKDSVNIEILHRLVTLLMSQEKNEEAILYNQKIIDH	0.022
HMTFAPTAIPSLTRPMEELMSWSFTPNEAFILSRINGLWDVRSIAKISPFPEGEVLRVFEKLHDGGLIRW	-2.92
HMVSRKIENPYWANKEKQHIIAEFFYPDTNKRVTASIMNDGSNRDYEEILRGYSIEQIDANTNRRLEER	0.436
HMKGQNRSEITAGARVKVVQKQDQRTGALTEGIVRDILTRSPHHPHGIKVRLESGIVGRVKDVL	0.0363
HMNIGVEQIEQMERGALITLWQELIDKPLPRHMSIVFLRQVLAFEVQSKQNGGLPRGFITLLNKQAD	-0.824
HMRTGLSGMIGEIGIVKQAIDPEGKVAVHGELWKARADVALAAGQTVRVVAVDGLTMTVEATDSK	-0.0264
HMIEINNLEDLKLMKEFILKNGKYGFGVFVGGKYIGLSDIGSVNSFKDTLGLPVVSLGNDDFKRFTEAH	-0.658
HMDDIVFPNPTKNQINVSIDGLKNIYNLSGKLLISTNDKIIDVSILKAGVYFINTNEQFYKFVK	-1.3

Sequence	soluble fraction (log2)
HMTSIISLAKARSIALQKVPGATSKNIHLSLDDEDDKQVYEGEIKYKQMEYVFEIDAKTGTFLKWTSERD	-1.66
HMETFGEKDLDELIGRNVELITHDGKVREGLVDSVDRYNVSLVRYLDAGEVAMMVRRREVKAVRLK	0.0419
HMGALSLDMLFDRFDALQEQSMGDKTEGGQELRGMIRTFIEQEKLDIRVTRTTTNAALLEMIEKEMQG	-0.451
HMTSNSLNLKDEISAFLTKNAGISYSAERIAHALNMDNADQFTPIIQTLAQLEREKKVRVTDKGEFEAVIK	0.0897
HMGGEPVSARVPDTLHGARLDATAAALFPDFSRSRLAEWIKAGRLRRNDQPAKPRDKVAVDDHLLLIPEY	0.0696
HMDAQLRVPDLTPYNYSELKENTSLYEGFTIEVVEERSTGDYAAGTVLDQDPKADTLIQDGDSTVIKLVIA	-0.12
HMYNTDAMGVRIGELRRAKGLTQEAFAKTLGISAQAVSKWETGLGFPDISLLPMIAETLGTKIETLFGAE	-0.0826
HMVLTYYSVLGVKTDATTEEIKSTYKQLAIRNHPDRGGSEEVMKMINLAAEILSDPKSRKEYDLSLDA	-2.87
HMLMLTPGQIAQTLDVSTATVRRWSARYARHLSPNTPGKKRSYTVDDLAVLTRVRDLSATGTPLAQIDQAL	-2.02
HMETPEIPGLTPRQVEIMLLVGKGYSNKEIARFLTISPETVKTHLKEVFLRFGLRNRVEAIDFTRQNGL	-0.363
HMFVEEGSLKKITFDTYEFNITDNLKSLRVTYQGLLPNLFREGQGVVIEGILLEQNYIQANTVF	0.22
HMSGKGEFDQLLRSGEYVQAFQRANANGNVTLRRQQLLNLARHQAASGVGSGAIESLSTIQRI	0.0926
HMEIIFVEHKVRPGESVWLIARKYKVKKNHILAVNNLSEKSIIRPKQILKIPTSGYDQYKKSVE	-3.22
HMFDFNNLSSLSDVELSVYRFVVNNPEKVAYMRVRDIAQKTHVANSSVMRFVHKIGFASFPEFKAYLKNIN	-1.03
HMERFRQVNAGMTRDDIYQLLGKPTEKTPFPLKNEEVWSWRHQADGQTVALFNIHLDPDGRVTTTSQSMDL	0.021
HMLKTADAIASVLLTRIQAGEFSAGRLPAERALSEAFSTTRITLREALGKLEAQGMIYRELRRGWFIA	-1.76
HMEMTSREIIKRLEEDGWYHVKTTGDHYQMKHPTKPGKVTIVHPAKDLSIGTLRSIEKQSGVRL	-0.0157
HMEGIAEILPASVRQKYGLIGLYDALRGLHFPGNMEEIKAARQRLAFEDTLMFSLTLSMMQYS	-0.0198
HMEGRTVMATTAVNVRSGPGTSYKILGVLYPGHTAQQIGNTRYGWAQVTWKGHTAYIAARYLRDS	-2.41
HMHELKIEKVAEAPNGAMRLLLSDGSEWVLGVKSWNRLNLSLEKILDVNVLRALEKESQYHLLRTKALEL	-0.395
HMVKKYEKVKEYLLERILDGTYVPDLPIPPERELASLLDVNRMTVRRAVEELMYDGYLIRKKGSGTYLTR	-1.57
HMEKGNEEALEQAREAILAVQSGEKYVDLDPANAAIRRKQHALAQASDLVSQSYGKDPNRYVRIFR	0.34
HMVDFHAAYSILRIAPGASWQEIQAAYEKLNDAWREDRYPQVPFWNEKAAFKRREVEQAYEKLRKFHALRH	-0.845
HMDGYTVYTNWGSDTNVARSDQQIQSQIPQLSGATIVGVWTKPIATGGTSYKIRYRTNSGAFTEIDVDQ	-0.105
HMGLASEVKTEDVLNEEKYDFEPDLIGNNNEAIYQNKQTGSYVLFDRNQNKVTKVLSAGEVLNHSKYNE	-0.0697
HMQQSQLDDIKSVVGGDEGYNKLREWTQANVPDETLKAFDKILDTQDPTMIKVAVEGFAAQMRQAE	-0.36
HMRSDHVFTSHLARRDKYISELESLSDSARDDHIQTIKEEDEYLLKYRRTRNLFGIPLNDEMKQFEPFNY	-0.131

Reference: the domain aggregation screens of Martell et al. (2025)
